Test results reported in patent US20240279357A1 (THERINI BIO, published 2024).

T1: P2 peptide comprising SEQ ID NO: 31 (human fibrin γ377-395) (human)
T1 construct: Bought (CPC Scientific 920712); also called human P2 peptide
T1 peptide: YSMKKTTMKIIPFNRLTIG

T2: human Fibrin (human fibrinogen clotted on the plate with thrombin and CaCl2) (human, UniProt P02671 36-629; P02675 45-491; P02679 27-437)
T2 construct: Made in the ELISA wells from the human fibrinogen by thrombin and CaCl2, 1 hour at 37 C, then dried
T2 sequence (looked up) 1: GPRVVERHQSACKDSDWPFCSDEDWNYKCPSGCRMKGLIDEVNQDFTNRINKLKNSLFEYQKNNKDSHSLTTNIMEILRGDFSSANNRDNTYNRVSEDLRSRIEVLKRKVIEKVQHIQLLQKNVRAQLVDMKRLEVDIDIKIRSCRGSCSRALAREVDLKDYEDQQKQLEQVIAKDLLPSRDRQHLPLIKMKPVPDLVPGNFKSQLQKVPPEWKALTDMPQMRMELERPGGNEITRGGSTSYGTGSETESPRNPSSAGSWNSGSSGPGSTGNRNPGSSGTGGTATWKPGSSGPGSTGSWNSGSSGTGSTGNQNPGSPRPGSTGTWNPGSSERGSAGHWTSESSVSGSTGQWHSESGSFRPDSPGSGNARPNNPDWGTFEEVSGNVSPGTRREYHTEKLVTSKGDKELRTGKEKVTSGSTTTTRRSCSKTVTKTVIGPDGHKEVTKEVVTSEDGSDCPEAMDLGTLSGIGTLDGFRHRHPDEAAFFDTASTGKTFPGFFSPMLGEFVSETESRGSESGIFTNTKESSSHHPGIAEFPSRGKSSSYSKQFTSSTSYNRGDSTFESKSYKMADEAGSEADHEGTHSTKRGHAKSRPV
T2 sequence (looked up) 2: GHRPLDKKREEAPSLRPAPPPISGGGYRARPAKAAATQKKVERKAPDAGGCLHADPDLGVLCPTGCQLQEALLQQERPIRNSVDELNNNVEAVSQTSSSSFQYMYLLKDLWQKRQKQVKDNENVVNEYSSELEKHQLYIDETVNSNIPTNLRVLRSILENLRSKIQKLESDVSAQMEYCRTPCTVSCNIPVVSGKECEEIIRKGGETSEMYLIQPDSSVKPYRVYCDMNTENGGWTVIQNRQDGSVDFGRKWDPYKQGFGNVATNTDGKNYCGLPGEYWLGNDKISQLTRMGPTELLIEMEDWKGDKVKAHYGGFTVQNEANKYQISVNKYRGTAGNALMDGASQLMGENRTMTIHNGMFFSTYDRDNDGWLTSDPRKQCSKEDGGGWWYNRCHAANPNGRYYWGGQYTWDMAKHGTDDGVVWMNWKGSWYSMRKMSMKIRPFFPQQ
T2 sequence (looked up) 3: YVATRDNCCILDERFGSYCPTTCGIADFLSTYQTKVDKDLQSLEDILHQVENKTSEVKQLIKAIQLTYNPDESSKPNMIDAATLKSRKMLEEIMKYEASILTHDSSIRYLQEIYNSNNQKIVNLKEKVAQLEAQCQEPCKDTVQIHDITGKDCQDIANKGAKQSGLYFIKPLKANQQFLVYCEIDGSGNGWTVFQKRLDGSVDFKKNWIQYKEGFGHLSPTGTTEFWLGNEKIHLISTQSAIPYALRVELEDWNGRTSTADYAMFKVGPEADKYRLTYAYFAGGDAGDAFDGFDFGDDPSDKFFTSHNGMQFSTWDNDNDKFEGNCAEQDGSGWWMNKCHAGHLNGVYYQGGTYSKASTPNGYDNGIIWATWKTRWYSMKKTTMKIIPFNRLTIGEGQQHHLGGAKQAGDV


Columns and labels:
[1] = target: T1, P2 peptide comprising SEQ ID NO: 31 …; test: ELISA on coated P2 peptide
Method: (§1) The humanized antibodies affinity for fibrinogen, fibrin and P2 peptide were assessed by Enzyme-linked immunosorbent assays (ELISA)s (FIGS. 7-16). ELISAs for fibrinogen binding were performed using plasminogen-depleted human Fibrinogen (EMD/Calbiochem). […] IgG1-depleted Fibrinogen (FGN) in 20 mM HEPES/Saline buffer was added to each well of half of a 96-well Nunc Maxisorp™ ELISA plate. The ELISAs for fibrin binding were prepared by adding 50 mL of 20 mM HEPES/Saline buffer containing 14 mM CaCl₂, and 2 units thrombin to each well of the second half of the Nunc Maxisorp™ ELISA plate. 50 mL of 20 mg fibrinogen in 20 mM HEPES/Saline buffer were then added to a total volume of 100 mL. Plates were placed in a 37° C. incubator for 1 hour to allow fibrinogen to clot into fibrin and subsequently placed overnight into a plate dryer at 37° C. overnight. The ELISAs for P2 peptide were prepared by addition of […] of 30 mM P2 peptide in 20 mM HEPES/Saline buffer to each well of a 96-well Nunc Maxisorp™ ELISA plate. Plates were transferred to the plate dryer and dried overnight at 37° C. All ELISAs were preformed using Nunc MaxiSorp 96-well ELISA plates. Blocking was performed using 100 mL 5% BSA in DPBS are incubated at RT for 1 hour. Plates were washed 5× in DPBS containing 0.05% Tween-20 (EL406 was used for the addition of wash buffer only). 50 mL of primary antibodies was diluted in 0.5% BSA in DPBS, and the primary antibodies were added to the plates and incubated for 2 hours at 37° C. Plates were washed 5× in DPBS/Tween. 100 mL secondary antibodies were diluted in 0.5% BSA in DPBS. The secondary antibodies were then added to the plates and incubated for 1 hour at RT. Afterwards, plates were washed 5× in DPBS/Tween. 100 mL of TMB/E substrate solution was added, and the reaction was stopped after 5 minutes with 1N HCl.

[2] = target: T2, human Fibrin (human fibrinogen clotted …); test: ELISA on human fibrin formed on the plate
Method: as §1

[3] = target: T1, P2 peptide comprising SEQ ID NO: 31 …; test: SPR (Biacore) multicycle, steady state fit; purified IgG captured, P2 peptide analyte
Method: Multicycle kinetics analysis of the variants were also performed to determine antibody affinity. […] At the start of each cycle, antibodies were loaded onto Fc2, Fc3 and Fc4 of the anti-human capture chip (GE Healthcare, Little Chalfont, UK). IgGs were captured at a flow rate of 10 μl/min to give an immobilization level (RL) of ˜1674 RU, the theoretical value to obtain a RMax of ˜50 RU. The surface was then allowed to stabilize. Kinetic data was obtained with P2 peptide as analyte using a flow rate of […] to minimize any potential mass transfer effects. Multiple repeats of a blank and a repeat of three concentrations of the analyte were programmed into the kinetic run in order to check the stability of both the surface and analyte over the kinetic cycles. […] The association phase of the peptide was monitored for 20 seconds and the dissociation phase was monitored for 25 seconds. Regeneration of the anti-human capture surface was conducted using one injection of 3.8 M magnesium chloride. The signal from the reference channel Fc1 was subtracted from that of Fc2, Fc3 and Fc4 to correct for differences in non-specific binding to a reference surface, and the data was then analyzed using steady state analysis due to the low affinity interaction to P2 peptide.

| Binder | EC50 [1] [nM] | EC50 [2] [nM] | Kd [3] [µM] | Relative KD [3] [fold against VH0/VK0] |
| --- | --- | --- | --- | --- |
| humanized VH5/Vκ2 antibody (antibody, IgG1, V domains shown, IgG1; also called VH5/VK2; VH5Vk2) VH: QVQLVQSGAEVKKPGSSVKVSCKASGYTFTSYWIHWVRQAPGQGLEWIGLIDPSDSYTNYNQKFRGRVTITRDTSTSTAYMELSSLRSEDTAVYYCASSDPTGCWGQGTTVTVSS VL: DIVMTQAAFSNPVTPGTPASISCRSSKSLLHSSGITYLSWYLQKPGQSPQLLIYQMSNLASGVPDRFSSSGSGTDFTLKISRVEAEDVGVYYCAQNLELPLTFGQGTKLEIK | ~78.1 | ~525 | 122 | 1.88 |
| humanized VH4/Vκ1 antibody (antibody, IgG1, V domains shown, Expressed as IgG1; also called VH4/VK1; VH4Vk1) VH: QVQLVQSGAEVKKPGSSVKVSCKASGYTFTSYWIHWVRQAPGQGLEWIGLIDPSDSYTNYNQKFRGRVTITVDTSTSTAYMELSSLRSEDTAVYYCASSDPTGCWGQGTTVTVSS VL: DIVMTQAAFSNPITPGTPASISCRSSKSLLHSSGITYLSWYLQKPGQSPQLLIYQMSNLASGVPDRFSSSGSGTDFTLRISRVEAEDVGVYYCAQNLELPLTFGQGTKLEIK | ~81.3 | ~219 | 86.2 | 1.33 |
| humanized VH6/Vκ2 antibody (antibody, IgG1, V domains shown, Expressed as IgG1; also called VH6/VK2; VH6Vk2) VH: QVQLVQSGAEVKKPGSSVKVSCKASGYTFTSYWIHWVRQAPGQGLEWIGLIDPSDSYTNYNQKFQGRVTITRDTSTSTAYMELSSLRSEDTAVYYCASSDPTGCWGQGTTVTVSS VL: DIVMTQAAFSNPVTPGTPASISCRSSKSLLHSSGITYLSWYLQKPGQSPQLLIYQMSNLASGVPDRFSSSGSGTDFTLKISRVEAEDVGVYYCAQNLELPLTFGQGTKLEIK | ~110 | ~488 | 132 | 2.04 |
| humanized VH4/Vκ2 antibody (antibody, IgG1, V domains shown, IgG1; also called VH4/VK2; VH4Vk2) VH: QVQLVQSGAEVKKPGSSVKVSCKASGYTFTSYWIHWVRQAPGQGLEWIGLIDPSDSYTNYNQKFRGRVTITVDTSTSTAYMELSSLRSEDTAVYYCASSDPTGCWGQGTTVTVSS VL: DIVMTQAAFSNPVTPGTPASISCRSSKSLLHSSGITYLSWYLQKPGQSPQLLIYQMSNLASGVPDRFSSSGSGTDFTLKISRVEAEDVGVYYCAQNLELPLTFGQGTKLEIK | ~85.1 | ~762 | 79.2 | 1.22 |
